B8: Drosophila melanogaster Gemin2 (natural protein, UniProt Q9VVX0 1-245, looked up)
chain: MQHEPEDQTFQLQALEICEPDSSFDPQKPPESGEEYLMHMFYERKRCPAVVTKRSSKIRNNTGNTTLEMLDNPELPPFKCLLPTPEWRDEQVKSFQAARSQVLVLRKELANNNYDQSGEPPLTSDQEKWKEFCRNQQPLLSTLLHLTQNDLELLLEMLSKWLQDPNTTVDLLHDVWLARWLYATLVCLHLPLEPHVFSTLRYIARTCIHLRNQLKEDEVQRAAPYNLLLTLTVQVFAQNDFKDYI
notes: Drosophila melanogaster Gemin2 (dmGemin2); also called dmGemin2; dmG2; source: E. coli BL21(DE3), purified (Ni-NTA, chitin beads, Superdex 200)

Data set [1] concerns the molecule itself. Nature of the data set: cross-linking; disulfide cross-linking of single-cysteine MBP-YG box fusions, 5 μM, 20 mM Tris-HCl pH 7.4, 200 mM NaCl, 1 mM EDTA, 10 mM maltose, 160 μM diamide, 1 h, 20°C; non-reducing SDS-PAGE.
Data set [2] deals with the molecule itself. Nature of the data set: SEC-MALS; Superdex 200 10/300 GL, 0.5 ml/min, room temperature (20°C), 50 mM HEPES-NaOH pH 7.5, 250 mM NaCl, 5 mM DTT; self-association of the SMN•G2 unit, (SMN•G2)n. A general note: In gel filtration, larger molecules generally elute earlier.
Data set [3] deals with the molecule itself. Nature of the data set: AUC; sedimentation equilibrium, 4°C, 20 mM Tris-HCl pH7.4, 200 mM NaCl, 5 mM DTT; monomer to dimer.
Data set [4] deals with the molecule itself. Briefly: not stated; shown in Supplementary Figure S2; method not given.
Data set [5] has as its target B8. Nature of the data set: SEC; complex reconstituted from separately purified proteins, two molar excess of dmGemin2, HFS tag cut with Ulp1, second Ni-NTA pass, Superdex 200 16/60 at 20°C, 20 mM Na/KPO4 pH 7.0, 300 mM NaCl, 1 mM DTT. Conditions: both partners purified.
Data set [6] concerns the molecule itself. Briefly: AUC; sedimentation velocity, 20 mM HEPES–NaOH pH 7.5, 300 mM NaCl, 0.1 mM TCEP, 0.16–1.0 mg/ml, 40 000 rpm; 25°C and 4°C (smaller species at 4°C).
Data set [7] deals with the molecule itself. Nature of the data set: SEC-MALS; Superdex 200 10/300 GL, 0.5 ml/min, room temperature (20°C), 50 mM HEPES-NaOH pH 7.5, 250 mM NaCl, 5 mM DTT; self-association of the SMN•G2 unit, (SMN•G2)n. The source holds these as a separate data set.

A word on the stoichiometry N: it is the number of molecules, sites or subunits per partner or assembly. By Kd is commonly meant the equilibrium constant for the complex coming apart.

“And” between values parts separate entries of the source, which are not always exact repeats. Equal values may be shown once.

B1: MBP-hsSMN^252-294(C289A, N283C) (domain or fragment, human, UniProt Q16637 252-294, looked up)
chain: DSLDDADALGSMLISWYMSGYHTGYYMGFRQCQKEGRASHSLN
notes: human SMN YG box, residues 252-294; also called hsSMN^N283C; source: E. coli BL21(DE3), purified (amylose resin); not shown: MBP, N-terminal, kept
Consider B1, for which, in data set [1], the binding result is recorded as “binds”.

B2: MBP-hsSMN^252-294(C289A, Y277C) (domain or fragment, human, UniProt Q16637 252-294, looked up)
chain: DSLDDADALGSMLISWYMSGYHTGYCMGFRQNQKEGRASHSLN
notes: human SMN YG box, residues 252-294; also called hsY277C; source: E. coli BL21(DE3), purified (amylose resin); not shown: MBP, N-terminal, kept
As to B2, the binding result in data set [1] was “binds”.

B3: MBP-hsSMN^252-294(C289A, S262C) (domain or fragment, human, UniProt Q16637 252-294, looked up)
chain: DSLDDADALGCMLISWYMSGYHTGYYMGFRQNQKEGRASHSLN
notes: human SMN YG box, residues 252-294; source: E. coli BL21(DE3), purified (amylose resin); not shown: MBP, N-terminal, kept
Regarding B3, the binding result in data set [1] is recorded as “binds”.

B4: MBP-hsSMN^252-294(C289A, R281C) (domain or fragment, human, UniProt Q16637 252-294, looked up)
chain: DSLDDADALGSMLISWYMSGYHTGYYMGFCQNQKEGRASHSLN
notes: as for B3
With B4, the binding result in data set [1] is “binds”.

B5: MBP-hsSMN^252-294(C289A, T274C) (domain or fragment, human, UniProt Q16637 252-294, looked up)
chain: DSLDDADALGSMLISWYMSGYHCGYYMGFRQNQKEGRASHSLN
notes: human SMN YG box, residues 252-294; also called hsT274C; source: E. coli BL21(DE3), purified (amylose resin); not shown: MBP, N-terminal, kept
In the case of B5, the binding result in data set [1] was “binds”.

B6: Hs^1-275-GCN4(IL) chimera•Gemin2 (complex)
chain 1: not shown
chain 2: MAWVPAESAVEELMPRLLPVEPCDLTEGFDPSVPPRTPQEYLRRVQIEAAQCPDVVVAQIDPKKLKRKQSVNISLSGCQPAPEGYSPTLQWQQQQVAQFSTVRQNVNKHRSHWKSQQLDSNVTMPKSEDEEGWKKFCLGEKLCADGAVGPATNESPGIDYVQIGFPPLLSIVSRMNQATVTSVLEYLSNWFGERDFTPELGRWLYALLACLEKPLLPEAHSLIRQLARRCSEVRLLVDSKDDERVPALNLLICLVSRYFDQRDLADEPS
Turning to B6, the “stoichiometry N” value in data set [2] turned out to be 2.

B7: MBP-spSMN YG box (112–152) A141Y, A145C (domain or fragment, Schizosaccharomyces pombe, UniProt Q09808 112-152, looked up)
chain: PPPIRGLTYDETYKKLIMSWYYAGYYTGLYEGLCKSEQRKD
notes: S. pombe SMN, residues 112-152; SMN residues fused to the penultimate Thr of E. coli MBP with a Gly-Ser linker; also called A145C mutant with an A141Y substitution; source: E. coli BL21(DE3), purified (amylose resin); not shown: MBP, N-terminal, kept
As to B7, in data set [1], the binding result is “binds”.
In data set [3], B8 displayed a Kd of 33.4 ± 5 µM.

B9: MBP-dmSMN^186-220 (domain or fragment, Drosophila melanogaster, UniProt Q9VV74 186-220, looked up)
chain: GAEQDFVAMLTAWYMSGYYTGLYQGKKEASTTSGK
notes: The SEC-SAXS methods print 189-220 for this fusion; also called MBP-dmSMN^189–220; source: expressed from pETDuet at 37°C, purified (amylose resin, Superdex-200); not shown: MBP, N-terminal, kept
B9: in data set [4], the “stoichiometry N” value was 4 and 8.

B10: Drosophila melanogaster SMN (natural protein, UniProt Q9VV74 1-226, looked up)
chain: MSDETNAAVWDDSLLVKTYDESVGLAREALARRLADSTNKREEENAAAAEEEAGEISATGGATSPEPVSFKVGDYARATYVDGVDYEGAVVSINEEKGTCVLRYLGYENEQEVLLVDLLPSWGKRVRREQFLIAKKDEDEQLSRPKASAGSHSKTPKSSRRSRISGGLVMPPMPPVPPMIVGQGDGAEQDFVAMLTAWYMSGYYTGLYQGKKEASTTSGKKKTPKK
notes: Drosophila melanogaster SMN (dmSMN); In the reconstitution the HFS tag was cut off with Ulp1 after dmGemin2 was added; also called dmSMN; source: E. coli BL21(DE3), purified (Ni-NTA after lysis in guanidine•HCl, urea wash)
Turning to B10, the binding result in data set [5] and in data set [6] was “binds” throughout.

B11: Schizosaccharomyces pombe SMN•Gemin2 complex (complex)
chain 1: MDQSQKEVWDDSELRNAFETALHEFKKYHSIEAKGGVSDPDSRLDGEKLISAARTEESISKLEEGEQMINQQTETTLEGDTHIQQFADNKGLSDEKPETRAAETHQEFMEVPPPIRGLTYDETYKKLIMSWYYAGYYTGLAEGLAKSEQRKD
chain 2: MPSKRKRNPLQYQTSGSLDEETNQRSAFPQIDNNSASESLEYDIPLDGLDYLATVREEARKLVPFVAARREPETRETIPLRKLEIEAGKKSFDPFLRYLLNIIDKEGERLEQYMESSSLDASILPKNLQQWRVYIEHKAPCWAILAVVDLATVLEILESLSSWLEKDAIDLQSQWIFCFCYKLPELLNGEDISTLRSVLKSLRSTHTSFPALQMSASALQAVLVYRYGQKDLFQT
notes: S. pombe SMN (Smn1p); S. pombe Gemin2; also called spSMN•G2; wild-type Smn1p; source: bacterial co-expression, purified as previously described (24)
For B11, the “stoichiometry N” value in data set [7] was 2 and 4.

B12: spSMN(A145Q)•Gemin2 (complex, Schizosaccharomyces pombe)
chain 1: MDQSQKEVWDDSELRNAFETALHEFKKYHSIEAKGGVSDPDSRLDGEKLISAARTEESISKLEEGEQMINQQTETTLEGDTHIQQFADNKGLSDEKPETRAAETHQEFMEVPPPIRGLTYDETYKKLIMSWYYAGYYTGLAEGLQKSEQRKD
chain 2: MPSKRKRNPLQYQTSGSLDEETNQRSAFPQIDNNSASESLEYDIPLDGLDYLATVREEARKLVPFVAARREPETRETIPLRKLEIEAGKKSFDPFLRYLLNIIDKEGERLEQYMESSSLDASILPKNLQQWRVYIEHKAPCWAILAVVDLATVLEILESLSSWLEKDAIDLQSQWIFCFCYKLPELLNGEDISTLRSVLKSLRSTHTSFPALQMSASALQAVLVYRYGQKDLFQT
notes: S. pombe SMN (Smn1p); S. pombe Gemin2; also called spA145Q; source: recombinant; yeast SMN•G2 complexes purified as previously described (24)
In the case of B12, the binding result in data set [7] is reported as “binds”.

B13: spSMN(A141Q)•Gemin2 (complex, Schizosaccharomyces pombe)
chain 1: MDQSQKEVWDDSELRNAFETALHEFKKYHSIEAKGGVSDPDSRLDGEKLISAARTEESISKLEEGEQMINQQTETTLEGDTHIQQFADNKGLSDEKPETRAAETHQEFMEVPPPIRGLTYDETYKKLIMSWYYAGYYTGLQEGLAKSEQRKD
chain 2: MPSKRKRNPLQYQTSGSLDEETNQRSAFPQIDNNSASESLEYDIPLDGLDYLATVREEARKLVPFVAARREPETRETIPLRKLEIEAGKKSFDPFLRYLLNIIDKEGERLEQYMESSSLDASILPKNLQQWRVYIEHKAPCWAILAVVDLATVLEILESLSSWLEKDAIDLQSQWIFCFCYKLPELLNGEDISTLRSVLKSLRSTHTSFPALQMSASALQAVLVYRYGQKDLFQT
notes: S. pombe SMN (Smn1p); S. pombe Gemin2; also called spA141Q; source: recombinant; yeast SMN•G2 complexes purified as previously described (24)
With B13, the binding result in data set [7] was “binds”.

B14: spSMN(Y137H)•Gemin2 (complex, Schizosaccharomyces pombe)
chain 1: MDQSQKEVWDDSELRNAFETALHEFKKYHSIEAKGGVSDPDSRLDGEKLISAARTEESISKLEEGEQMINQQTETTLEGDTHIQQFADNKGLSDEKPETRAAETHQEFMEVPPPIRGLTYDETYKKLIMSWYYAGYHTGLAEGLAKSEQRKD
chain 2: MPSKRKRNPLQYQTSGSLDEETNQRSAFPQIDNNSASESLEYDIPLDGLDYLATVREEARKLVPFVAARREPETRETIPLRKLEIEAGKKSFDPFLRYLLNIIDKEGERLEQYMESSSLDASILPKNLQQWRVYIEHKAPCWAILAVVDLATVLEILESLSSWLEKDAIDLQSQWIFCFCYKLPELLNGEDISTLRSVLKSLRSTHTSFPALQMSASALQAVLVYRYGQKDLFQT
notes: S. pombe SMN (Smn1p); S. pombe Gemin2; also called spY137H; source: recombinant; yeast SMN•G2 complexes purified as previously described (24)
As for B14, the binding result in data set [7] was “binds”.

B15: spSMN(G143V)•Gemin2 (complex, Schizosaccharomyces pombe)
chain 1: MDQSQKEVWDDSELRNAFETALHEFKKYHSIEAKGGVSDPDSRLDGEKLISAARTEESISKLEEGEQMINQQTETTLEGDTHIQQFADNKGLSDEKPETRAAETHQEFMEVPPPIRGLTYDETYKKLIMSWYYAGYYTGLAEVLAKSEQRKD
chain 2: MPSKRKRNPLQYQTSGSLDEETNQRSAFPQIDNNSASESLEYDIPLDGLDYLATVREEARKLVPFVAARREPETRETIPLRKLEIEAGKKSFDPFLRYLLNIIDKEGERLEQYMESSSLDASILPKNLQQWRVYIEHKAPCWAILAVVDLATVLEILESLSSWLEKDAIDLQSQWIFCFCYKLPELLNGEDISTLRSVLKSLRSTHTSFPALQMSASALQAVLVYRYGQKDLFQT
notes: S. pombe SMN (Smn1p); S. pombe Gemin2; also called spG143V; source: recombinant; yeast SMN•G2 complexes purified as previously described (24)
On to B15, for which the binding result in data set [7] is on record as “binds”.

Values taken from PMC8287954, “Assembly of higher-order SMN oligomers is essential for metazoan viability and requires an exposed structural motif present in the YG zipper dimer” (Nucleic Acids Research, 2021).
